This note sets out measurements from paper PMC3924271.

Where “and” joins values, the source holds several entries; their conditions need not be identical. Equal entries are not always repeated.

For assay [1], the target named is Rabbit skeletal muscle actin, monomeric (G-actin) (rabbit) (UniProt P68135). Description: SPR. (SPR reads the build-up and loss of mass on a sensor chip optically.)
Assay [2] deals with Rabbit skeletal muscle actin, filamentous (F-actin) (rabbit) (UniProt P68135).
Assay [3] has as its target Rabbit skeletal muscle actin, monomeric (G-actin) (rabbit) (UniProt P68135). Put plainly: cross-linking.

In assay [1], PfADF1.K72A (natural protein) had a Kd of 33 µM and a kon of 64.2 M⁻¹ s⁻¹.

In assay [2], “Plasmodium falciparum actin depolymerizing factor 1 (PfADF1), wild type (natural protein)” came in with a filament pitch by negative-stain TEM, similar concentration of PfADF1 of 39.4 nm. Further, the percent of actin and PfADF1 linked by EDC in assay [3] was 10% and 25%. In assay [1], this substance yielded a Kd of 3.5 µM and a kon of 95.9 M⁻¹ s⁻¹.

As usually defined, the Kd is the free concentration of one partner at which half of the binding sites on the other are occupied at equilibrium, for simple one-to-one binding. Higher therefore signals lower affinity. What is called kon is a measure of how fast the partners come together. Lower therefore signals slow association.
